Positions count from the first letter of the chain named.
Legend:
[1] = biological target: T1, Wheat alpha-amylase pI 5.23 inhibitor (spot #4), P01084
T1 chain: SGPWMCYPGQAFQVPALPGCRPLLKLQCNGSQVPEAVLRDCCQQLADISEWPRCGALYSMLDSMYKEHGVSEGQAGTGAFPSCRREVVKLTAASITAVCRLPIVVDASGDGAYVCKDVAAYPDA

[2] = biological target: T2, Wheat alpha-amylase/trypsin inhibitor (spot #3), P16851
T2 chain: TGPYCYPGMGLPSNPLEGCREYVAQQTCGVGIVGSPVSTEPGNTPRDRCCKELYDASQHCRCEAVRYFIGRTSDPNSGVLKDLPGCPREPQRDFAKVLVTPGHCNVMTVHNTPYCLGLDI

[3] = biological target: wheat gliadin homolog of oat avenin (spot #2)
[4] = biological target: T3, Wheat alpha-amylase pI 6.66 inhibitor (spot #1), P01085
T3 chain: T1 chain with G19A, K25R, D47H, P52C, V70A, S71Q, S82R

B1: wheat thioredoxin h (WTRXh), 13.5-kDa protein encoded by the 384-bp wtrxh fragment (protein)
chain: MAASAATATATAAAVGAGEVISVHSLEQWTMQIEEANAAKKLVVIDFTASWCGPCRIMAPIFADLAKKFPAAVFLKVDVDELKPIAEQFSVEAMPTFLFMKEGDVKDRVVGAIKEELTTKVGLHAAQ
- redox state by mBBr/2D IEF/SDS-PAGE, homozygote overexpressing thioredoxin h vs. null segregant [1]: five proteins were observed to be more highly reduced in extracts of the homozygote (spots 1-5, FIG. 29)
- redox state by mBBr/2D IEF/SDS-PAGE, homozygote overexpressing thioredoxin h vs. null segregant [2]: five proteins were observed to be more highly reduced in extracts of the homozygote (spots 1-5, FIG. 29)
- redox state by mBBr/2D IEF/SDS-PAGE, homozygote overexpressing thioredoxin h vs. null segregant [3]: five proteins were observed to be more highly reduced in extracts of the homozygote (spots 1-5, FIG. 29)
- redox state by mBBr/2D IEF/SDS-PAGE, homozygote overexpressing thioredoxin h vs. null segregant [4]: five proteins were observed to be more highly reduced in extracts of the homozygote (spots 1-5, FIG. 29)
